In paper PMC12494034 one finds stoichiometry N data, which are given here for 13 substances.

Several values for one entry are separate records, joined by “and”; a condition that tells them apart may be missing. Equal values may be shown once.

Experiment in all cases: cryo-EM structure; single-particle analysis of purified HFTV1 virions (DNA-filled and empty particles sorted by 2D classification) in 18% SW buffer (2.47 M NaCl, 89 mM MgCl2, 85 mM MgSO4, 56 mM KCl, 3 mM CaCl2, 48 mM tris-HCl, pH 7.2); focused refinements of head, turrets, portal, tail, baseplate and tail fibers
Assay [1] addresses baseplate hub gp44 of HFTV1 (Haloferax tailed virus 1 (HFTV1)).
Assay [2] addresses capsid stabilization protein gp18 of HFTV1 (Haloferax tailed virus 1 (HFTV1)).
Assay [3] concerns the target baseplate-tail connector gp41 of HFTV1 (Haloferax tailed virus 1 (HFTV1)).
Assay [4] deals with portal interface protein gp21 of HFTV1 (Haloferax tailed virus 1 (HFTV1)).
The target in assay [5] is tail tube protein gp35 of HFTV1 (Haloferax tailed virus 1 (HFTV1)).
For assay [6], the target named is turret base protein gp30 of HFTV1 (Haloferax tailed virus 1 (HFTV1)).
Assay [7] deals with tail completion protein gp29 of HFTV1 (Haloferax tailed virus 1 (HFTV1)).
For assay [8], the target named is head-tail connector gp26 of HFTV1 (Haloferax tailed virus 1 (HFTV1)).
The target of assay [9] is portal protein gp13 of HFTV1 (Haloferax tailed virus 1 (HFTV1)).
Assay [10] has as its target tape measure protein gp40 of HFTV1 (Haloferax tailed virus 1 (HFTV1)).
For assay [11], the target named is major capsid protein gp19 of Haloferax tailed virus 1 (HFTV1) (Haloferax tailed virus 1 (HFTV1)).
Assay [12] concerns the target tail fiber protein gp42 of HFTV1 (Haloferax tailed virus 1 (HFTV1)).
The target in assay [13] is turret head protein gp31 of HFTV1 (Haloferax tailed virus 1 (HFTV1)).

With “baseplate hub gp44 of HFTV1 (natural protein)”, the stoichiometry N (as a rule, a count of units in the complex or per binding partner) in assay [1] turned out to be 3.
On to “capsid stabilization protein gp18 of HFTV1 (natural protein)”, for which the stoichiometry N in [2] was 3.
In [3], “baseplate-tail connector gp41 of HFTV1 (natural protein)” had a stoichiometry N of 3.
On to “portal interface protein gp21 of HFTV1 (natural protein)”, for which the stoichiometry N in [4] was 5.
For “tail tube protein gp35 of HFTV1 (natural protein)”, the stoichiometry N in [5] is 6.
For the substance “turret base protein gp30 of HFTV1 (from UniProt A0A410N6V5 1-115) (natural protein)”, in [6], the stoichiometry N was determined as 6.
“tail completion protein gp29 of HFTV1 (natural protein)”: the stoichiometry N in assay [7] was determined as 6.
As to “head-tail connector gp26 of HFTV1 (natural protein)”, the stoichiometry N in [8] is 12.
The substance “portal protein gp13 of HFTV1 (natural protein)” registered a stoichiometry N in assay [9] of 12.
“tape measure protein gp40 of HFTV1 (natural protein)” registered a stoichiometry N in assay [10] of 6.
Consider “major capsid protein gp19 of Haloferax tailed virus 1 (HFTV1) (natural protein)”, for which the stoichiometry N in assay [11] is 5 and 6.
For the substance “tail fiber protein gp42 of HFTV1 (natural protein)”, in assay [12], the stoichiometry N is 3.
For the substance “turret head protein gp31 of HFTV1 (natural protein)”, the stoichiometry N in [13] came to 3.
